Experimental data reported in patent US20200392228A1 (PANDION OPERATIONS, published 2020).

T1: mouse MAdCAM expressed on cells (mouse, UniProt Q61826 22-405)
T1 construct: whole, on cells
T1 sequence (looked up): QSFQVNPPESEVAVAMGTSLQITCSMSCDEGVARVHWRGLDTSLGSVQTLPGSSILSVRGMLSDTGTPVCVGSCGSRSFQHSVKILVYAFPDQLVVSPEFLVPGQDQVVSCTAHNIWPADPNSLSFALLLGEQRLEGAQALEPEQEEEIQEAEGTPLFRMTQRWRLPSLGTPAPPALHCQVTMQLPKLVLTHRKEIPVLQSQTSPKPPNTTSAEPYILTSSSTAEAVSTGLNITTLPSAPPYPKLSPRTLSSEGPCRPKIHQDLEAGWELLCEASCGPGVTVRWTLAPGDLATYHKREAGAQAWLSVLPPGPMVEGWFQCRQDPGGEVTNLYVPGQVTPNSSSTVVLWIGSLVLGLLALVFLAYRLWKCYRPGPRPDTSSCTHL

B1: MAdCAM antibody Clone ID 45 of Table 7 (IgG) (antibody, V domains shown)
VH: EVQLVESGGGLVKPGGSLRLSCAASGFTFGDYAMSWVRQAPGKGLEWVSYISGDIGYTNYAAPVKGRFTISRDDSKNTLYLQMNSLKTEDTAVYYCARDVAATGNWYFDLWGRGTLVTVSS
VL: not shown
notes: IgG format
B2: MAdCAM antibody Clone ID 35 of Table 7 (IgG) (antibody, V domains shown)
VH: QVQLVQSGAEVKKPGASVKVSCKASGYTFTGYYIHWVRQAPGQGLEWMGWMNPNSGNTGYAQKFQGRVTMTRDTSTSTVYMELSSLRSEDTAVYYCARDPGFLGYSSGGSSYDGWFDPWGQGTLVTVSS
VL: DIQMTQSPSSLSASVGDRVTITCRASQSISSYLHWYQQKPGKAPKLLIYAASSLQSGVPSRFSGSGSGTDFTLTISSLQPEDFATYYCQQSYTAPYTFGQGTKLEIK
notes: IgG format
B3: MAdCAM antibody Clone ID 53 of Table 7 (IgG) (antibody, V domains shown)
VH: QVQLVQSGAEVKKPGASVKVSCKASGYTFTSYYMHWVRQAPGQGLEWMGWMNPNSGNTGYAQKFQGRVTMTRDTSTSTVYMELSSLRSEDTAVYYCAREGLGYCTNGVCWNYYGMDVWGQGTLVTVSS
VL: DIQMTQSPSSLSASVGDRVTITCRASQGISSWLAWYQQKPGKAPKLLIYGASSLQSGVPSRFSGSGSGTDFTLTISSLQPEDFATYYCQQSYSTPYTFGQGTKVEIK
notes: IgG format
B4: MAdCAM antibody Clone ID 40 of Table 7 (IgG) (antibody, V domains shown)
VH: QVQLVQSGAEVKKPGASVKVSCKASGYTLTTWYMYWVRQAPGQGLEWMGWINPNRGATNYAQKFQGRVTMTRDTSTSTVYMELSSLRSEDTAVYYCAKGDLWGAMDVWGQGTLVTVSS
VL: DIQMTQSPSSLSASVGDRVTITCRASDNIGSWLAWYQQKPGKAPKLLIYAASSLQSGVPSRFSGSGSGTDFTLTISSLQPEDFATYYCQQGYSTPPTFGQGTKVEIK
notes: IgG format
B5: MAdCAM antibody Clone ID 32 of Table 7 (IgG) (antibody, V domains shown)
VH: QVQLVQSGAEVKKPGASVKVSCKASGYTLTTWYMYWVRQAPGQGLEWMGWINPNRGATNYAQKFQGRVTMTRDTSTSTVYMELSSLRSEDTAVYYCAKGDLWGAMDVWGQGTLVTVSS
VL: DIQMTQSPSSLSASVGDRVTITCRASDNIGSWLAWYQQKPGKAPKLLIYAASSLQSGVPSRFSGSGSGTDFTLTISSLQPEDFATYYCQQGYSTPPTFGQGTKVEIK
notes: IgG format
B6: MAdCAM antibody Clone ID 12 of Table 7 (IgG) (antibody, V domains shown)
VH: QVQLVQSGAEVKKPGASVKVSCKASGYTLTTWYMYWVRQAPGQGLEWMGWINPNRGATNYAQKFQGRVTMTRDTSTSTVYMELSSLRSEDTAVYYCAKGDLWGAMDVWGQGTLVTVSS
VL: DIQMTQSPSSLSASVGDRVTITCRASDNIGSWLAWYQQKPGKAPKLLIYAASSLQSGVPSRFSGSGSGTDFTLTISSLQPEDFATYYCQQGYSTPPTFGQGTKVEIK
notes: IgG format
B7: MAdCAM antibody Clone ID 33 of Table 7 (IgG) (antibody, V domains shown)
VH: QVQLVQSGAEVKKPGASVKVSCKASGYTLTTWYMYWVRQAPGQGLEWMGWINPNRGATNYAQKFQGRVTMTRDTSTSTVYMELSSLRSEDTAVYYCAKGDLWGAMDVWGQGTTVTVSS
VL: DIQMTQSPSSLSASVGDRVTITCRASDNIGSWLAWYQQKPGKAPKLLIYAASSLQSGVPSRFSGSGSGTDFTLTISSLQPEDFATYYCQQGYSTPPTFGQGTKVEIK
notes: IgG format
B8: MAdCAM antibody Clone ID 55 of Table 7 (IgG) (antibody, V domains shown)
VH: EVQLLESGGGLVQPGGSLRLSCAASGFTFDDFAMHWVRQAPGKGLEWVSGISGNGDSRYYADSVKGRFTISRDNSKNTLYLQMNSLRAEDTAVYYCARDASYGGNYGMDVWGQGTTVTVSS
VL: DIQMTQSPSSLSASVGDRVTITCQASQDIRNYLNWYQQKPGKAPKLLIYKASTLESGVPSRFSGSGSGTDFTLTISSLQPEDFATYYCQQANSFPLTFGPGTKVDIK
notes: IgG format
B9: MAdCAM antibody Clone ID 54 of Table 7 (IgG) (antibody, V domains shown)
VH: QVQLVQSGAEVKKPGSSVKVSCKASGGTLSRYGVSWVRQAPGQGLEWMGGIIPIFGTTNYAQKFQGRVTITADESTSTAYMELSSLRSEDTAVYYCARDRVYYDSSGYPTWYFDLWGRGTLVTVSS
VL: EIVMTQSPATLSVSPGERATLSCRASQSVSSSYLAWYQQKPGQAPRLLIYGASTRATGIPARFSGSGSGTEFTLTISSLQSEDFAVYYCQQYGSSPITFGQGTKVEIK
notes: IgG format

target: T1, mouse MAdCAM expressed on cells; assay: cell binding

Binding result, no binding:
B1
B2
B3
B4
B5
B6
B7
B8
B9
